Results on 2 molecules are retold here after patent US20220033520A1 (published 2022).

The target in experiment [1] is T1, human FcRn complex (FCGRT and beta-2 microglobulin), recombinant, purified (human, UniProt P55899 24-297; P61769 21-119). Nature of the experiment: ?; pH 7.4.
Experiment [2] has as its target T1, human FcRn complex (FCGRT and beta-2 …). Nature of the experiment: ?; pH 6.
The target is the same in experiment [3]. The experiment is described as follows: ?; pH 6. This is another data set of the same source.
Experiment [4] shares this target. The experiment is described as follows: -; pH6.
The target is the same in experiment [5]. The experiment is described as follows: -; pH7.4.
The target is the same in experiment [6]. The experiment is described as follows: ?; pH 7.4. The source holds these as a separate data set.
The target is the same in experiment [7]. The experiment is described as follows: -; pH6. The source holds these as a separate data set.
The target is the same in experiment [8]. Nature of the experiment: -; pH6. The source holds these as a separate data set.
Experiment [9] has the same target. The experiment is described as follows: -; pH7.4. The source holds these as a separate data set.
Experiment [10] has the same target. Nature of the experiment: -; pH7.4. The source holds these as a separate data set.
Experiment [11] has the same target. Nature of the experiment: ?; pH 6. The source holds these as a separate data set.
For experiment [12] the target is unchanged. Nature of the experiment: -; pH7.4. This is another data set of the same source.
The target is the same in experiment [13]. Nature of the experiment: -; pH6. The source holds these as a separate data set.
Experiment [14] has the same target. The experiment is described as follows: ?; pH 7.4. The source holds these as a separate data set.

T1 sequence (P55899 24-297, chain 1 of 2): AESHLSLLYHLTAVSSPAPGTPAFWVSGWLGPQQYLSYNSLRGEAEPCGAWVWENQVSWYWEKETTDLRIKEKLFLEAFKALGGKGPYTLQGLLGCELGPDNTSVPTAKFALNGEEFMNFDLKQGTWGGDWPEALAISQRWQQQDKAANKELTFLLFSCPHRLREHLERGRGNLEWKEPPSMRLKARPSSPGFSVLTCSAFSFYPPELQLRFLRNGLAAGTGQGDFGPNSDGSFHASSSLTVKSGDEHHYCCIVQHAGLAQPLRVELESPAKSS
T1 sequence (P61769 21-119, chain 2 of 2): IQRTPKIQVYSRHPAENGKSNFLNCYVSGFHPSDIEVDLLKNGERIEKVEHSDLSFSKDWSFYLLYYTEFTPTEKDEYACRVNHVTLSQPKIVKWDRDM

B1: anti-gD antibody comprising a hIgG1 with a YQAY (Q95, M252Y/T307Q/Q311A/N434Y) Fc modification (anti-gD-hIgG1-YQAY) (antibody)
Fc: PAPELLGGPSVFLFPPKPKDTLYISRTPEVTCVVVDVSHEDPEVKFNWYVDGVEVHNAKTKPREEQYNSTYRVVSVLQVLHADWLNGKEYKCKVSNKALPAPIEKTISKAKGQPREPQVYTLPPSRDELTKNQVSLTCLVKGFYPSDIAVEWESNGQPENNYKTTPPVLDSDGSFFLYSKLTVDKSRWQQGNVFSCSVMHEALHYHYTQKSLSLSPGK
Usually Kd stands for the constant that tells how readily two partners part at equilibrium. For B1, the equilibrium dissociation constant (Kd) in [1] amounted to 333 nM; in [2], 2 nM; in experiment [3], 2 nM; in experiment [4], 2 nM; in experiment [5] it was 333 nM; in experiment [6], 333 nM. Further, the equilibrium dissociation constant (Kd) in experiment [7] came to 2 nM; in [8], 2 nM; in experiment [9] it was 333 nM; in experiment [10], 333 nM.

B2: anti-BACE1 hIgG1 antibody, Fc modification Q95 (M252Y/T307Q/Q311A/N434Y) (antibody)
Fc: B1 Fc
As for B2, the Kd in experiment [11] turned out to be 1.98 nM; in [12], 333 nM; in experiment [13], 2 nM; in experiment [14] it was 333 nM.
